Source: paper PMC3983046

Experiments:
[1] = target: Ash2LN K229E (human, UniProt Q9UBL3 95-280, K229E); experiment: EMSA
[2] = target: Ash2LN K225E (human, UniProt Q9UBL3 95-280, K225E); experiment: EMSA
Sequence of Ash2LN K225E (Q9UBL3 95-280 K225E): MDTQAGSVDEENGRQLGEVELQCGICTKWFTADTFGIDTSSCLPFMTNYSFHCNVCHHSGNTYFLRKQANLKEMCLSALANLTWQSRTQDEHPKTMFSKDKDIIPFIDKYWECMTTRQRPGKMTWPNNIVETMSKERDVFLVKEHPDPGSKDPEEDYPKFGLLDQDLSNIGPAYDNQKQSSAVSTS

Sequence of Ash2LN K229E (Q9UBL3 95-280 K229E): as the sequence (Q9UBL3 95-280 K225E) above, with E131K, K135E counted along it

B1: HS2 (dsDNA)
DNA 1: GCAATGCTGAGTCATGATGAGTCATGCTGAGGCTTAGGGTGTGTGC
DNA 2: GCACACACCCTAAGCCTCAGCATGACTCATCATGACTCAGCATTGC
- binding result [1]: no binding
- binding result [2]: no binding
